Laboratory results: the supplement of paper PMC10567573

B1: SPOPL (parent)
chain: YTGRAPNLDKMADNLLAAADKYAL

Variants of: B1
Assay: protein stability index of a GFP-peptide fusion (GPS, HEK-293T) (PSI 1-6); higher = more stable
Settings: c terminus: a fixed tail appended
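Note: lentivirally expressed fusions sorted by FACS into six bins by GFP to DsRed ratio, PSI derived from sequencing read proportions per bin multiplied by bin number.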

Variant	protein stability index
YTGRAPNLDKMADNLGAAADKYAL	2.94
YTGRAPNLDKMADNLNAAADKYAL	2.22
YTGRAPNLDKMADNLRAAADKYAL	2.65
YTGRAPNLDKMADNLAAAADKYAL	2.24
YTGRAPNLDKMADNLKAAADKYAL	3.18
YTGRAPNLDKMADNLQAAADKYAL	2.73
YTGRAPNLDKMADNLFAAADKYAL	1.22
YTGRAPNLDKMADNLCAAADKYAL	1.59
YTGRAPNLDKMADNLSAAADKYAL	1.84
YTGRAPNLDKMADNLMAAADKYAL	2.37
YTGRAPNLDKMADNLIAAADKYAL	2.33
YTGRAPNLDKMADNLDAAADKYAL	3.83
YTGRAPNLDKMADNLVAAADKYAL	2.2
YTGRAPNLDKMADNLTAAADKYAL	3.25
YTGRAPNLDKMADNLHAAADKYAL	2.97
YTGRAPNLDKMADNLEAAADKYAL	3.22
YTGRAPNLDKMADNLPAAADKYAL	2.32
YTGRAPNLDKMADNLYAAADKYAL	2.06
YTGRAPNLDKMADNLLAAADKYAE	3.11
YTGRAPNLDKMADNLLAAADKYAG	2.78
YTGRAPNLDKMADNLLAAADKYAC	2.37
YTGRAPNLDKMADNLLAAADKYAH	2.49
YTGRAPNLDKMADNLLAAADKYAA	2.02
YTGRAPNLDKMADNLLAAADKYAI	2.02

Variant	protein stability index
YTGRAPNLDKMADNLLAAADKYAM	2.33
YTGRAPNLDKMADNLLAAADKYAD	3.62
YTGRAPNLDKMADNLLAAADKYAF	2.01
YTGRAPNLDKMADNLLAAADKYAK	2.55
YTGRAPNLDKMADNLLAIADKYAL	1.42
YTGRAPNLDKMADNLLAEADKYAL	2.42
YTGRAPNLDKMADNLLAKADKYAL	1.77
YTGRAPNLDKMADNLLAFADKYAL	1.77
YTGRAPNLDKMADNLLAYADKYAL	2.25
YTGRAPNLDKMADNLLAVADKYAL	2.31
YTGRAPNLDKMADNLLAQADKYAL	3.07
YTGRAPNLDKMADNLLANADKYAL	2.01
YTGRAPNLDKMADNLLALADKYAL	2.7
YTGRAPNLDKMADNLLACADKYAL	1.51
YTGRAPNLDKMADNLLATADKYAL	1.99
YTGRAPNLDKMADNLLASADKYAL	2.18
YTGRAPNLDKMADNLLAWADKYAL	2.62
YTGRAPNLDKMADNLLARADKYAL	1.56
YTGRAPNLDKMADNLLADADKYAL	2.62
YTGRAPNLDKMADNLLAHADKYAL	1.96
YTGRAPNLDKMADNLLAMADKYAL	1.9
YTGRAPNLDKMADNLLAGADKYAL	2.61
YTGRAPNLDKMADNLLAPADKYAL	2.18
YTGRAPNLDKMADNLLAAADKIAL	2.22

Variant	protein stability index
YTGRAPNLDKMADNLLAAADKSAL	3.66
YTGRAPNLDKMADNLLAAADKTAL	2.72
YTGRAPNLDKMADNLLAAADKNAL	3.3
YTGRAPNLDKMADNLLAAADKQAL	2.17
YTGRAPNLDKMADNLLAAADKPAL	2.73
YTGRAPNLDKMADNLLAAADKLAL	1.61
YTGRAPNLDKMADNLLAAADKFAL	1.92
YTGRAPNLDKMADNLLAAADKVAL	2.27
YTGRAPNLDKMADNLLAAADKRAL	3.05
YTGRAPNLDKMADNLLAAADKMAL	1.93
YTGRAPNLDKMADNLLAAADKEAL	3.04
YTGRAPNLDKMADNLLAAADKKAL	3.07
YTGRAPNLDKMADNLLAAADKDAL	2.03
YTGRAPNLDKMADNLLAAADKWAL	1.67
YTGRAPNLDKMADNLLAAADKGAL	3.2
YTGRAPNLDKMADNLLAAADKHAL	2.18
YTGRAPNLDKMADNLLAAADKYDL	2.45
YTGRAPNLDKMADNLLAAADKYSL	1.97
YTGRAPNLDKMADNLLAAADKYYL	2.02
YTGRAPNLDKMADNLLAAADKYWL	1.22
YTGRAPNLDKMADNLLAAADKYFL	1.81
YTGRAPNLDKMADNLLAAADKYHL	1.78
YTGRAPNLDKMADNLLAAADKYQL	2.4
YTGRAPNLDKMADNLLAAADKYGL	1.83

Variant	protein stability index
YTGRAPNLDKMADNLLAAADKYEL	2.77
YTGRAPNLDKMADNLLAAADKYNL	2.3
YTGRAPNLDKMADNLLAAADKYLL	1.67
YTGRAPNLDKMADNLLAAADKYIL	1.65
YTGRAPNLDKMADNLLAAADKYPL	2.24
YTGRAPNLDKMADNLLAAADKYML	2.18
YTGRAPNLDKMADNLLAAADKYRL	1.91
YTGRAPNLDKMADNLLAAADKYCL	2.57
YTGRAPNLDKMADNLLAAADKYKL	2.37
YTGRAPNLDKMADNLLAAADKYVL	1.54
YTGRAPNLDKMADNLLAAADKYTL	2.71
YTGRAPNLDKMADNLLAAADDYAL	2.36
YTGRAPNLDKMADNLLAAADPYAL	2.48
YTGRAPNLDKMADNLLAAADHYAL	1.89
YTGRAPNLDKMADNLLAAADNYAL	2.11
YTGRAPNLDKMADNLLAAADWYAL	2.02
YTGRAPNLDKMADNLLAAADMYAL	1.65
YTGRAPNLDKMADNLLAAADAYAL	2.04
YTGRAPNLDKMADNLLAAADIYAL	1.42
YTGRAPNLDKMADNLLAAADLYAL	2.02
YTGRAPNLDKMADNLLAAADYYAL	1.13
YTGRAPNLDKMADNLLAAADGYAL	1.81
YTGRAPNLDKMADNLLAAADSYAL	1.92
YTGRAPNLDKMADNLLAAADVYAL	2.53

Variant	protein stability index
YTGRAPNLDKMADNLLAAADEYAL	3.6
YTGRAPNLDKMADNLLAAADQYAL	3.78
YTGRAPNLDKMADNLLAAADCYAL	1.88
YTGRAPNLDKMADNLLAAIDKYAL	2.76
YTGRAPNLDKMADNLLAATDKYAL	1.99
YTGRAPNLDKMADNLLAAWDKYAL	1.37
YTGRAPNLDKMADNLLAAEDKYAL	2.33
YTGRAPNLDKMADNLLAAGDKYAL	2.23
YTGRAPNLDKMADNLLAAQDKYAL	2.77
YTGRAPNLDKMADNLLAANDKYAL	2.49
YTGRAPNLDKMADNLLAASDKYAL	1.65
YTGRAPNLDKMADNLLAADDKYAL	2.76
YTGRAPNLDKMADNLLAAKDKYAL	1.64
YTGRAPNLDKMADNLLAAFDKYAL	1.5
YTGRAPNLDKMADNLLAARDKYAL	2.25
YTGRAPNLDKMADNLLAAPDKYAL	2.7
YTGRAPNLDKMADNLLAAMDKYAL	2.22
YTGRAPNLDKMADNLLAAHDKYAL	2.24
YTGRAPNLDKMADNLLAAYDKYAL	2.11
YTGRAPNLDKMARNLLAAADKYAL	2.66
YTGRAPNLDKMAVNLLAAADKYAL	1.73
YTGRAPNLDKMATNLLAAADKYAL	1.91
YTGRAPNLDKMASNLLAAADKYAL	2.04
YTGRAPNLDKMADNLLVAADKYAL	2

Variant	protein stability index
YTGRAPNLDKMADNLLQAADKYAL	2.33
YTGRAPNLDKMADNLLTAADKYAL	2.55
YTGRAPNLDKMADNLLDAADKYAL	2.7
YTGRAPNLDKMADNLLHAADKYAL	2.08
YTGRAPNLDKMADNLLMAADKYAL	1.4
YTGRAPNLDKMADNLLIAADKYAL	1.58
YTGRAPNLDKMADNLLSAADKYAL	2.27
YTGRAPNLDKMADNLLLAADKYAL	2.34
YTGRAPNLDKMADNLLGAADKYAL	2.79
YTGRAPNLDKMADNLLYAADKYAL	1.62
YTGRAPNLDKMADNLLCAADKYAL	2.28
YTGRAPNLDKMADNLLPAADKYAL	1.95
YTGRAPNLDKMADNLLFAADKYAL	2.04
YTGRAPNLDKMADNLLKAADKYAL	2.28
YTGRAPNLDKMADNLLEAADKYAL	2.98
YTGRAPNLDKMADNLLRAADKYAL	2.05
YTGRAPNLDKMADNLLNAADKYAL	2.44
YTGRAPNLDKMADNCLAAADKYAL	2.87
YTGRAPNLDKMADNMLAAADKYAL	2.19
YTGRAPNLDKMADNVLAAADKYAL	2.14
YTGRAPNLDKMADNILAAADKYAL	2.25
YTGRAPNLDKMADNGLAAADKYAL	2.35
YTGRAPNLDKMADNNLAAADKYAL	2.74
YTGRAPNLDKMADNHLAAADKYAL	2.38

Variant	protein stability index
YTGRAPNLDKMADNWLAAADKYAL	1.93
YTGRAPNLDKMADNTLAAADKYAL	2.32
YTGRAPNLDKMADNYLAAADKYAL	1.98
YTGRAPNLDKMADNFLAAADKYAL	2.23
YTGRAPNLDKMADNDLAAADKYAL	2.83
YTGRAPNLDKMADNKLAAADKYAL	3.64
YTGRAPNLDKMADNRLAAADKYAL	2.43
YTGRAPNLDKMADNSLAAADKYAL	3.6
YTGRAPNLDKMADNQLAAADKYAL	2.96
YTGRAPNLDKMADNELAAADKYAL	2.92
YTGRAPNLDKMADNPLAAADKYAL	2.43
YTGRAPNLDKMADTLLAAADKYAL	1.45
YTGRAPNLDKMADSLLAAADKYAL	2.38
YTGRAPNLDKMADPLLAAADKYAL	2.2
YTGRAPNLDKMADYLLAAADKYAL	1.86
YTGRAPNLDKMADMLLAAADKYAL	2.37
YTGRAPNLDKMADFLLAAADKYAL	1.84
YTGRAPNLDKMADWLLAAADKYAL	1.45
YTGRAPNLDKMADKLLAAADKYAL	1.73
YTGRAPNLDKMADALLAAADKYAL	1.69
YTGRAPNLDKMADRLLAAADKYAL	2.39
YTGRAPNLDKMADGLLAAADKYAL	2.05
YTGRAPNLDKMADILLAAADKYAL	1.85
YTGRAPNLDKMADVLLAAADKYAL	2.43

Variant	protein stability index
YTGRAPNLDKMADHLLAAADKYAL	1.94
YTGRAPNLDKMADELLAAADKYAL	2.16
YTGRAPNLDKMADDLLAAADKYAL	2.25
YTGRAPNLDKMADQLLAAADKYAL	2.01
YTGRAPNLDKMADNLLAAAIKYAL	1.71
YTGRAPNLDKMADNLLAAAQKYAL	1.53
YTGRAPNLDKMADNLLAAAEKYAL	1.61
YTGRAPNLDKMADNLLAAARKYAL	2.57
YTGRAPNLDKMADNLLAAASKYAL	1.48
YTGRAPNLDKMADNLLAAAKKYAL	1.4
YTGRAPNLDKMADNLLAAAFKYAL	1.39
YTGRAPNLDKMADNLLAAAPKYAL	1.41
YTGRAPNLDKMADNLLAAAGKYAL	2.29
YTGRAPNLDKMADNLLAAACKYAL	1.99
YTGRAPNLDKMADNLLAAATKYAL	2.34
YTGRAPNLDKMADNLLAAAHKYAL	2.14
YTGRAPNLDKMADNLLAAAMKYAL	2.22
YTGRAPNLDKMADNLLAAANKYAL	1.3
YTGRAPNLDKMADNLLAAALKYAL	1.84
YTGRAPNLDKMADNLLAAAVKYAL	3.92
